In patent US20190111149A1 (MEDITOPE BIOSCIENCES, published 2019):

B1: Peptide 19: Ac-…XRCGGGK with Duostatin; -Glu-vc-PAB-Duostatin-; X=(S)-2-amino-5-(3-methyl-3H-diazirin-3-yl) pentanoic acid (peptide)
peptide: not shown
modifications: N-terminal acetyl; X at position 10 = (S)-2-amino-5-(3-methyl-3H-diazirin-3-yl)pentanoic acid; -Glu-vc-PAB-Duostatin conjugated
notes: 5-carbon chain at position 10
B2: Peptide 19: Ac-…XRCGGGK with Duostatin; -Glu-vc-PAB-Duostatin-; X = (S)-2-amino-5-(3-methyl-3H-diazirin-3-yl) pentanoic acid (peptide)
peptide: not shown
modifications: N-terminal acetyl; X10 = (S)-2-amino-5-(3-methyl-3H-diazirin-3-yl)pentanoic acid; Glu-vc-PAB-Duostatin conjugated
notes: also called Peptide 19 (with Duostatin); Peptide 19 (with 1 Duostatin per peptide, DAR 2)
B3: Peptide 20: Ac-…XRCGGGK with Duostatin; -Glu-vc-PAB-Duostatin-; X=(S)-2-amino-6-(3-methyl-3H-diazirin-3-yl) hexanoic acid (peptide)
peptide: not shown
modifications: N-terminal acetyl; X at position 10 = (S)-2-amino-6-(3-methyl-3H-diazirin-3-yl)hexanoic acid; -Glu-vc-PAB-Duostatin conjugated

Legend:
[1] = biological target: T1, Meditope enabled Lintuzumab; assay: BLI Octet, antibody on anti-human Fc tip, peptide 12 nM
T1 construct: also called Lintuzumab enabled
T1 sequence (VH, as listed by the source, chain 1 of 2): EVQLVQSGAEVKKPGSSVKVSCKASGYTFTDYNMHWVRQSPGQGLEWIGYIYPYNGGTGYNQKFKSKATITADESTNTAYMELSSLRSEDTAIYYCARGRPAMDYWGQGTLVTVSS
T1 sequence (VL, as listed by the source, chain 2 of 2): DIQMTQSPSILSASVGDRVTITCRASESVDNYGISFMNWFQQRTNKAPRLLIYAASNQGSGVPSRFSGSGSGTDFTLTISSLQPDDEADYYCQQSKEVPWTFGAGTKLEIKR

[2] = biological target: T2, Meditope enabled Panitumumab; assay: as above
T2 construct: also called Panitumumab enabled
T2 sequence (VH, as listed by the source, chain 1 of 2): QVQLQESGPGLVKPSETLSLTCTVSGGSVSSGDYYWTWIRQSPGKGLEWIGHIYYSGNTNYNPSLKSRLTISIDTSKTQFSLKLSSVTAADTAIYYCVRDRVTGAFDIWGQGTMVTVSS
T2 sequence (VL, as listed by the source, chain 2 of 2): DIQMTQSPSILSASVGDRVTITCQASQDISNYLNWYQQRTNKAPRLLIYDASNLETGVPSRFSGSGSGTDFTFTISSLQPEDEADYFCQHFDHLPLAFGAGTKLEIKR

[3] = biological target: T1, Meditope enabled Lintuzumab; assay: BLI Octet, antibody on anti-human Fc tip, peptide 37 nM
[4] = biological target: T2, Meditope enabled Panitumumab; assay: as above
[5] = biological target: T1, Meditope enabled Lintuzumab; assay: BLI Octet, antibody on anti-human Fc tip, peptide 111 nM
[6] = biological target: T1, Meditope enabled Lintuzumab; assay: BLI Octet, antibody on anti-human Fc tip, peptide 333 nM
[7] = biological target: T3, Meditope enabled Clivatuzumab; assay: BLI Octet, antibody on anti-human Fc tips
T3 construct: also called Clivatuzumab enabled
T3 sequence (heavy, as listed by the source, chain 1 of 2): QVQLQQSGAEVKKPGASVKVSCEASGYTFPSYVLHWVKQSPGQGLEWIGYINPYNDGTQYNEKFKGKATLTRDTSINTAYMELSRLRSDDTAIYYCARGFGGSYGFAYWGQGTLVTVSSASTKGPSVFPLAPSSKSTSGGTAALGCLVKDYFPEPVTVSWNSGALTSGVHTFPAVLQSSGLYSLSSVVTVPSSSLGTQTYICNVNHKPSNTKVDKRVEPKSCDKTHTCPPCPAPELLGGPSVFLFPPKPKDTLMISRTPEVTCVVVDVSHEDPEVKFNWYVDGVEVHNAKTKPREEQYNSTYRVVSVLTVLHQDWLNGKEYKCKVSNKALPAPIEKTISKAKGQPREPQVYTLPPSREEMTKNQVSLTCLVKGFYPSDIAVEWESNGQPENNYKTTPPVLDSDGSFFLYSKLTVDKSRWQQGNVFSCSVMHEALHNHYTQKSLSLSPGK
T3 sequence (light, as listed by the source, chain 2 of 2): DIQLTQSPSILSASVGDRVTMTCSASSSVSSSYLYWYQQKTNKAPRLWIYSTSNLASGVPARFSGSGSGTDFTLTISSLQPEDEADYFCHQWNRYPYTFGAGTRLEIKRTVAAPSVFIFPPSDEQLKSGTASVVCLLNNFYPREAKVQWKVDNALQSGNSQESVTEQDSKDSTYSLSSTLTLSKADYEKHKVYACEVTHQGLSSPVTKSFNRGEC

MBI_CD19_1; (SAR3419) = assay: BLI Octet, antibody on anti-human Fc tips
Chain of MBI_CD19_1; (SAR3419) (heavy, as listed by the source, chain 1 of 2): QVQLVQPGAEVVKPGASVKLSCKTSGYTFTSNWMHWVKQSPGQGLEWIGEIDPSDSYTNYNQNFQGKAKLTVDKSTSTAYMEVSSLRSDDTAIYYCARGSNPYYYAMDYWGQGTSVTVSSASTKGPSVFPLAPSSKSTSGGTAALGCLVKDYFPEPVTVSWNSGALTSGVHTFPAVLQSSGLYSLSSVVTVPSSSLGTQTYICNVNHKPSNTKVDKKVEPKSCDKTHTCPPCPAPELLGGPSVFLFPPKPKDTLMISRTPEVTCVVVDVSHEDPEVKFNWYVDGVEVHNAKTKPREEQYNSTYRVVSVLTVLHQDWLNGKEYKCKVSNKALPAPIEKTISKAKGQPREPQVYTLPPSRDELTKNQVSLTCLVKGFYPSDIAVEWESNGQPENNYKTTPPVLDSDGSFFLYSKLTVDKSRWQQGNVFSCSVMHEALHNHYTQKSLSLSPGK
Chain of MBI_CD19_1; (SAR3419) (light, as listed by the source, chain 2 of 2): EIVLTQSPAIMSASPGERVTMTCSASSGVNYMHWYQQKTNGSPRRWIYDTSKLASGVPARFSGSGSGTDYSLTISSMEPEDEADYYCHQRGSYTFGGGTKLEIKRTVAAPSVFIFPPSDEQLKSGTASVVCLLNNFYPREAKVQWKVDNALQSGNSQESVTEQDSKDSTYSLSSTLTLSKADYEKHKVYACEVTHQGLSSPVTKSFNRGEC

MBI_CD19_2; (MOR208) = assay: BLI Octet, antibody on anti-human Fc tips
Chain of MBI_CD19_2; (MOR208) (heavy, as listed by the source, chain 1 of 2): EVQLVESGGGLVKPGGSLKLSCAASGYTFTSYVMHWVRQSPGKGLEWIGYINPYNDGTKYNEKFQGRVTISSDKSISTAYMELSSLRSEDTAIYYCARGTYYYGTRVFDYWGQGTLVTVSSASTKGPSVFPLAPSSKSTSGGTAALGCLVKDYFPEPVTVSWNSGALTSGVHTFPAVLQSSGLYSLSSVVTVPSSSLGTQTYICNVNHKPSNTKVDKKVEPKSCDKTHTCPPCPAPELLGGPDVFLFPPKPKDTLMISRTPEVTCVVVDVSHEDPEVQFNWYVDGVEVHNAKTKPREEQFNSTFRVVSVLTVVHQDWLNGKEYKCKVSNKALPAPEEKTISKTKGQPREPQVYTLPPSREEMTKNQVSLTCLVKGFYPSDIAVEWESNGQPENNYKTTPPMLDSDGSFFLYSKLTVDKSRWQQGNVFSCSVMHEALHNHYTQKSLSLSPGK
Chain of MBI_CD19_2; (MOR208) (light, as listed by the source, chain 2 of 2): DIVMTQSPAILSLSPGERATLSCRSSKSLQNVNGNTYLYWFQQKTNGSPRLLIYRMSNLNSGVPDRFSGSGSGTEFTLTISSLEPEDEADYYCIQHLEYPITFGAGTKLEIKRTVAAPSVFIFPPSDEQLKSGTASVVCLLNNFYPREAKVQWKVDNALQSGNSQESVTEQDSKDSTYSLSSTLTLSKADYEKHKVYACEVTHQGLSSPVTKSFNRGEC

[8] = biological target: T4, Meditope enabled Ocaratuzumab; assay: BLI Octet, antibody on anti-human Fc tips
T4 construct: also called Ocaratuzumab enabled
T4 sequence (heavy, as listed by the source, chain 1 of 2): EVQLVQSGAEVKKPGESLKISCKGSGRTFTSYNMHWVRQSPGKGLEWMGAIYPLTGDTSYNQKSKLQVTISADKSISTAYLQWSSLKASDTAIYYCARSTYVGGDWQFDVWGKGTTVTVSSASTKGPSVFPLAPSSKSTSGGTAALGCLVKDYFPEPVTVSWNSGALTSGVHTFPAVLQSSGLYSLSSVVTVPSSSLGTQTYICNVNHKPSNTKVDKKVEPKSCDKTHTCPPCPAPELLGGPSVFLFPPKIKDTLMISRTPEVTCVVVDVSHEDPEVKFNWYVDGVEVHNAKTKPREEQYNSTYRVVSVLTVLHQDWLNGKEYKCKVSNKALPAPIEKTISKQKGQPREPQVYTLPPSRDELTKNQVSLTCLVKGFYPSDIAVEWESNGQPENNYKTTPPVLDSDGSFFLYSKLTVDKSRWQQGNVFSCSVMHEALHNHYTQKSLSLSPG
T4 sequence (light, as listed by the source, chain 2 of 2): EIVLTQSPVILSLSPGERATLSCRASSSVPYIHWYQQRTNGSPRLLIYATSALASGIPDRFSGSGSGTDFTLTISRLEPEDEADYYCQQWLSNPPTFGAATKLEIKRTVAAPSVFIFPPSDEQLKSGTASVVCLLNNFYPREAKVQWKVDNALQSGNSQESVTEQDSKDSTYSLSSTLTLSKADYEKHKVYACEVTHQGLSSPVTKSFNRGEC

[9] = biological target: T5, Photo optimized trastuzumab; meditope enabled (Tmab); assay: BLI Octet, antibody on anti-human Fc tips
T5 construct: also called photo-optimized trastuzumab V2; photo-optimized meditope enabled Trastuzumab variant 2
T5 sequence (heavy, as listed by the source, chain 1 of 2): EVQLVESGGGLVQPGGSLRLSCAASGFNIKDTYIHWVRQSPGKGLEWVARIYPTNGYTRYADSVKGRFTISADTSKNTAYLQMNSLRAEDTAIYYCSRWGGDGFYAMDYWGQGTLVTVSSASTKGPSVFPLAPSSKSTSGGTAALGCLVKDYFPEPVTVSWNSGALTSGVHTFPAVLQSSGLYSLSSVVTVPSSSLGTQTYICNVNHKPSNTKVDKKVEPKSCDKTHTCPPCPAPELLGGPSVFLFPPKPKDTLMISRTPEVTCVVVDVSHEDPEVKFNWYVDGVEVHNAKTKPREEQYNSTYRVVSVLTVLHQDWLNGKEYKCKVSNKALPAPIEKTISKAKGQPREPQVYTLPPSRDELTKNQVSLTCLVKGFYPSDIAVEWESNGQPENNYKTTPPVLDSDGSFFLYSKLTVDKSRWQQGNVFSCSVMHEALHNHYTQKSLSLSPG
T5 sequence (light, as listed by the source, chain 2 of 2): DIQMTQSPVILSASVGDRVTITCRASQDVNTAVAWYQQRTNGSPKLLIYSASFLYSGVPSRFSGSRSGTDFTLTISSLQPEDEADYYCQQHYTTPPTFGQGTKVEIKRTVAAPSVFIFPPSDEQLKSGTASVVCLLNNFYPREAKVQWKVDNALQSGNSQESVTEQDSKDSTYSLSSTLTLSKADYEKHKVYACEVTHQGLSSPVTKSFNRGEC

[10] = biological target: T5, Photo optimized trastuzumab; meditope …; assay: BLI Octet, antibody on anti-human Fc tips; remark: listed apart in the source
[11] = biological target: T6, Meditope enabled Trastuzumab; assay: BLI Octet, antibody on anti-human Fc tips
T6 construct: also called Trastuzumab enabled
T6 sequence (heavy, as listed by the source, chain 1 of 2): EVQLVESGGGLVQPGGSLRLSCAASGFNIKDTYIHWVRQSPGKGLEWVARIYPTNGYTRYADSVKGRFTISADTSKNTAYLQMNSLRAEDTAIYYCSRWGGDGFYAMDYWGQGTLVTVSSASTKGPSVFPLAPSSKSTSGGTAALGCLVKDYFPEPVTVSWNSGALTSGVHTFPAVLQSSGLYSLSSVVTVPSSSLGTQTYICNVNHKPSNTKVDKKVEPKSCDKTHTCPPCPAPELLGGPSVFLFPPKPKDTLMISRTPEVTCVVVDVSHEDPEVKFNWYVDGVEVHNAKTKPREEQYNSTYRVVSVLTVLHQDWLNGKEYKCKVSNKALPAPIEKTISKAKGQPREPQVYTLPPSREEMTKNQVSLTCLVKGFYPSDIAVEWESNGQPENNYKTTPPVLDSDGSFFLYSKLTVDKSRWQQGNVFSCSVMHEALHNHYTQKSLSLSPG
T6 sequence (light, as listed by the source, chain 2 of 2): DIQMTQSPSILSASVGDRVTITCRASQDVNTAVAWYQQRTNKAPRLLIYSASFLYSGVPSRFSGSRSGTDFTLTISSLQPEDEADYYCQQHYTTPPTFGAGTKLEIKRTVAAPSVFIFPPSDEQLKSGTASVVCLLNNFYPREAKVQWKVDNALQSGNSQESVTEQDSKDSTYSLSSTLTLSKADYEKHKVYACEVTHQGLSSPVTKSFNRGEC

[12] = biological target: T5, Photo optimized trastuzumab; meditope …; assay: BLI Octet, antibody on anti-human Fc tips; Peptide 19, Table 9
[13] = biological target: T1, Meditope enabled Lintuzumab; assay: BLI Octet, antibody on anti-human Fc tip, peptide 1000 nM; Peptide 20

Binder	Kd [1] [nM]	Kd [2] [nM]	Kd [3] [nM]	Kd [4] [nM]	Kd [5] [nM]	Kd [6] [nM]	binding result [7]	binding result (MBI_CD19_1; (SAR3419))	Kd (MBI_CD19_2; (MOR208)) [nM]	binding result [8]	Kd [9] [nM]	Kd [10] [nM]	Kd [11] [nM]	Kd [12] [nM]	Kd [13] [nM]
B1	55.5	< 0.001	5680	< 0.001	3000	1170	–	–	–	–	–	–	–	–	–
B2	–	–	–	–	–	–	no binding	no binding	33.8	no binding	33.8	42.8	149	120	–
B3	246	–	1210	–	3340	6550	–	–	–	–	–	–	–	–	19800
